Key:
[1] = Toxicity of [225Ac]DOTA-HuM195 i.v. in cynamologous monkeys; type: in vivo, cynamologous monkey; details: 9 months out
Protocol: Two male cynamologous monkeys (3-5 kg) were injected i.v. 9 months ago with an initial 0.002-0.005 mCi dose of [225Ac]DOTA-HuM195 per monkey and then 6 weeks later with a 0.017-0.020 mCi dose of [225Ac]DOTA-HuM195. Animals are followed by serial blood sampling and observation of activity and appearance as a function of time.

LNCaP tumor xenograft = assay: Biodistribution of 225Ac/221Fr/213Bi in LNCaP tumor bearing mice; details: for A2(o)/A2(eq) Bi-213 at sacrifice time / A2(o)/A2(eq) Fr-221 at sacrifice time / % ID/g Ac-225 / % ID/g Bi-213 / % ID/g Fr-221: 48 hour, mean; for A2(o)/A2(eq) Bi-213 at sacrifice time / A2(o)/A2(eq) Fr-221 at sacrifice time: daughter/parent ratio
Protocol: An [225Ac]DOTA-J591 biodistribution experiment was carried-out using a male athymic nude (8-12 weeks old) mouse (Taconic, Germantown, N.Y.) model with an i.m. xenograft of 5E6 LNCaP tumor cells in Matrigel (Becton Dickinson Labware, Bedford Mass.) implanted in the right hind leg. The tumors were allowed to grow for 4 weeks and then the mice were separated into two groups (n=12 per group). One group received approximately 0.55 mL of [225Ac]DOTA-J591 (350 nCi ^225Ac on 0.0035 mg J591) and the other group received the irrelevant control [225Ac]DOTA-HuM195 (350 nCi 225Ac on 0.0026 mg HuM195) via i.p. injection. Three to four animals from each group were sacrificed at 48 h and 72 h post injection. Blood and tissue samples including: heart, kidneys, lung, spleen, liver, stomach, intestine, and tumor were harvested, weighed and counted using a Packard Cobra Gamma Counter (Packard Instrument Co., Inc., Meriden, Conn.) with two energy windows, ^221Fr (185-250 KeV window) and ^213Bi (360-480 window). The percent of the injected dose per gram of tissue (% ID/g) was determined by measuring the activity in […] aliquots of each respective [^225Ac]mAb injectate in triplicate. After the initial 48 h time point data was analyzed, attention was focused on collection of blood, tumor, heart, kidney and small intestine samples as the need to rapidly sacrifice, harvest, and count was necessary in order to measure ^221Fr in the samples.
Using known methods (28), values of A2(o)/A2(eq) were determined for each tissue sample.

[2] = system: human HL60 leukemia cells; assay: In vitro cytotoxicity (LD50), HL60, tritiated thymidine incorporation; type: cell-based
Protocol: The potency and specificity of 225Ac-HuM195-DOTA was then evaluated in-vitro as a function of specific activity and activity concentration (FIG. 6). A suspension of HL60 cells were washed twice with complete media and then dispensed into a 96 well cell culture plate in complete media supplemented with 2% human serum. The volume was 100 μl and the cells were at a density of 5×10^5 cells/ml. Next a serial dilultion of purified ^225Ac-HuM195-DOTA was added to the wells. The diluent was complete media and volume added was 100 μl. The starting activity was 10 nCi/ml, which was diluted 5-fold for each subsequent tube. […] The cells were incubated for 2 days at 37° C., following which tritiated thymidine was added (0.5 pC, in 50 il complete media/well). The cells were incubated at 37° C. for an additional 5 h, then harvested using a Combi Cell Harvestor (Skatron Instruments). Cell viability was determined by analyzing the degree of tritiated thymidine incorporated into the DNA of the treated cells relative to control cells.
The potency and specificity of [225Ac]IgG for killing single cancer cells is determined using 5E4 cells in 0.2 mL per well in 96 well plates. Serial dilutions of [225Ac]IgG are added (triplicate) to the cells to yield final activity in the wells ranging from 74 kBl/mL to 37E-6 kB q/mL. Non-specific killing is measured after target cells are blocked with a 100-10000-fold excess of unlabeled IgG before plating and subsequent addition of [225Ac]IgG.

Daudi lymphoma cells = assay: In vivo efficacy against disseminated Daudi lymphoma; set-up: species or system mouse; details: irrelevant control, day 1
Protocol: Daudi lymphoma cells are disseminated into 8-12 week old female Scid mice via an intravenous (i.v.) injection of 5E6 Daudi tumor cells in the tail vein; mice experience a 100% tumor take rate in the model (20). In this lymphoma therapy experiment mice are treated 1 day post-tumor dissemination via intravenous injection. Animals are monitored for signs of illness and hind leg paralysis or inability to breathe or ambulate at which time they are sacrificed.
In the first experiment with this disseminated model, mice are treated 1 day post-tumor dissemination with a single dose of labeled specific [225Ac]B4 at three different dose levels, irrelevant control [225Ac]HuM195 at two dose levels, or a mass of unlabeled B4 matching the antibody mass dose administered in the highest dose level radiolabeled groups. Control groups receiving the irrelevant [225Ac]HuM195 have median survival times from xenograft of 43 days and 36 days. Mice receiving 0.003 mg unlabeled B4 per mouse have a median survival time of 57 days from xenograft. The mice receiving a single injection of [225Ac]B4 show dose-related increases in median survival times from xenograft to 165, 137 and 99 days, respectively. The dose response of [225Ac]B4 is significant with P=0.05. […]

## 225Ac-HuM195-DOTA
[1]; i.v. 0.002-0.005 mCi then 0.017-0.020 mCi 6 weeks later
  evidence of toxicity: no evidence of toxicity
[1]; i.v.
  hepatic, renal and hematopoietic function: did not change
LNCaP tumor xenograft; 48 h, LNCaP tumor bearing mice, i.p.
  225Ac uptake in the liver: less than 8%
LNCaP tumor xenograft; Blood
  A2(o)/A2(eq) Bi-213 at sacrifice time: 0.04
  A2(o)/A2(eq) Fr-221 at sacrifice time: 0.13
  % ID/g Ac-225: 13.5 % ID/g
  % ID/g Bi-213: 0.55 % ID/g
  % ID/g Fr-221: 0.18 % ID/g
LNCaP tumor xenograft; Heart
  A2(o)/A2(eq) Bi-213 at sacrifice time: 0.99
  A2(o)/A2(eq) Fr-221 at sacrifice time: 1.6
  % ID/g Ac-225: 3.9 % ID/g
  % ID/g Bi-213: 3.9 % ID/g
  % ID/g Fr-221: 6.1 % ID/g
LNCaP tumor xenograft; Kidneys
  A2(o)/A2(eq) Bi-213 at sacrifice time: 10.0
  A2(o)/A2(eq) Fr-221 at sacrifice time: 16.8
  % ID/g Ac-225: 4.7 % ID/g
  % ID/g Bi-213: 46.5 % ID/g
  % ID/g Fr-221: 72.8 % ID/g
LNCaP tumor xenograft; Liver
  A2(o)/A2(eq) Bi-213 at sacrifice time: 0.87
  A2(o)/A2(eq) Fr-221 at sacrifice time: 0.70
  % ID/g Ac-225: 7.7 % ID/g
  % ID/g Bi-213: 6.5 % ID/g
  % ID/g Fr-221: 5.5 % ID/g
LNCaP tumor xenograft; Sm. Int.
  A2(o)/A2(eq) Bi-213 at sacrifice time: 4.0
  A2(o)/A2(eq) Fr-221 at sacrifice time: 13.3
  % ID/g Ac-225: 1.6 % ID/g
  % ID/g Bi-213: 6.3 % ID/g
  % ID/g Fr-221: 18.7 % ID/g
LNCaP tumor xenograft; Tumor
  A2(o)/A2(eq) Bi-213 at sacrifice time: 0.87
  A2(o)/A2(eq) Fr-221 at sacrifice time: 0.83
  % ID/g Ac-225: 1.60 % ID/g
  % ID/g Bi-213: 5.0 % ID/g
  % ID/g Fr-221: 4.6 % ID/g
[2]; HL60 (non-specific), excess unlabeled antibody, S.A. 0.089 GBq/g
  LD50: 185.0 Bq/mL
[2]; HL60 (specific), S.A. 8.9 GBq/g
  LD50: 0.3 Bq/mL
[2]; HL60, Ac-225 construct, S.A. 0.24 Ci/g
  LD50: 8 pCi/mL
[2]; HL60, specific activity 0.094 nCi/ng, 2 days at 37° C. then tritiated thymidine 5 h
  LD50: about 1.3 nCi/ml
Daudi lymphoma cells; first-named of two dose levels (5550 Bq per FIG. 8A, order assumed)
  median survival time from xenograft: 43 days
Daudi lymphoma cells; second-named of two dose levels (1850 Bq per FIG. 8A, order assumed)
  median survival time from xenograft: 36 days

Source: US6683162B2, “Targeted alpha particle therapy using actinium-255 conjugates” (Sloan Kettering Institute of Cancer Research, priority 2000, dated 2004)
